Binding data for 2 sequences are collected here from PMC4699771.

This series concerns T1, YhaJ (Escherichia coli EHEC O157:H7? EDL933 (amplified from TUV93-0 genomic DNA)), ORF:62819c23.
T1 sequence: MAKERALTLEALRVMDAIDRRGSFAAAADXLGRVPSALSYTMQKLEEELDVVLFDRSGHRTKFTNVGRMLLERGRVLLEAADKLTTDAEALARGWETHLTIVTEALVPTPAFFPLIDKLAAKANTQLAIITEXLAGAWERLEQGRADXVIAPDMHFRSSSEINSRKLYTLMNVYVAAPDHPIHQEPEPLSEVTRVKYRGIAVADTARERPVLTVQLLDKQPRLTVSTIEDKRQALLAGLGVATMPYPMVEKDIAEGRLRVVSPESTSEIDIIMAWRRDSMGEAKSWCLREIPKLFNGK
The experiment in a line: EMSA. To be noted: EMSA: Roche DIG Gel Shift Kit 2nd Gen (buffer, salt and pH not stated), 30 min at 30 C, YhaJ 0-1 uM, DIG probe diluted to 0.4 ng/ul, 6% DNA retardation gel. On the technique in general: In EMSA bound probe runs differently from free probe, usually more slowly.

Regarding “TCGCTCAATATTTTGTAGGGCTTATTATTTTTTTCCGAGCCGCATCAAGGCGATATGCGGTCTACGTTTTTGCAGGCGAGTTATTAGAATAAAGAAATGATACGCGCGAGGTCAGAGAAAATCTTCACAATCAAGACTTTGAAATAACGGAGATGGATAAGAATTTTCTACTAAATTAATCGCAAGAGAATATTCACTCTCTATTTGCGGCAGATCACAAAAAAAAGGTGCACATTTGTGCACCCAAGGATGAAAGCTGACAGCAATGTCAGCCGCAGACCACTTTAATGGCCAGTCCGC (double strand) [pyhaO promoter probe]”, the binding entry was “binds”. In the case of “CCTGCTGTAGAACTGCAATTTGCTCTATAAGCTGAATGTATGGACTTGTTGTATGTGAATTATTTTCCATATTCATAATAAATAATCTCCGCATGCTTTAATATTTTAAGCTATTAGCGACCTTATCAGGAAGGACCAACAATTAATCAAATGATATAAATTATGTGAGATAACGTTTATCTATCAAATTAGGACACATCTATTTCATCAAACAACCACCTTAAAATG (double strand) [LEE1 P2 promoter probe]” it was “no binding”.
